Reference: patent US20150119254, “NUCLEIC ACID FRAGMENT BINDING TO TARGET PROTEIN” (RIKEN, published 2015)

What was measured:
VEGF-165 [1] = target: T1, VEGF-165 (Homo sapiens, UniProt P15692-4 P15692-4:27-191); assay: SPR; existing aptamer control; 25 C; settings: tags: PeproTech; chain copies: 2 (dimer, concentrations stated in terms of dimer)
VEGF-165 [2] = target: T1, VEGF-165; assay: SPR; 25 C; settings: tags: PeproTech; chain copies: 2 (dimer, concentrations stated in terms of dimer)
Method: (§1) Five types of sequences were selected from the sequences shown in Table 8 and analyzed for their VEGF-165-binding ability by surface plasmon resonance (SPR) assay using BIACORE 3000 (GE Healthcare Japan Corp.) and 57-mer DNA fragments (Table 9) truncated at a primer region. A previously reported 57-mer DNA fragment comprising the DNA sequence of VEGF-165 was also prepared and analyzed as a control.
(§2) The DNA fragments used in the assay were subjected to curve fitting using BiaEvaluation software attached to Biacore 3000 and reaction models of Langmuir with mass transfer.

VEGF-165 [3] = target: T1, VEGF-165; assay: SPR; 25 C; settings: tags: PeproTech; chain copies: 2 (dimer, concentrations stated in terms of dimer); remark: listed apart in the source
VEGF-165 [4] = target: T1, VEGF-165; assay: SPR; previously reported aptamer control; settings: tags: PeproTech; chain copies: 2 (dimer, concentrations stated in terms of dimer); label: 5' biotin-dT
Method: For comparison, 98-mer (full length) N43Ds-09-1, full-length DNA fragments N43Ds-09-1(AT) and N43Ds-09-1(G) with the artificial base Ds replaced with a natural base, and a control DNA fragment reported as a VEGF-binding DNA aptamer (VEGF binding DNA 35, 35 mer) were also assayed under the same conditions. As in the full length binding analysis of Example 2, each DNA fragment having biotinylated T added to the end for the direct immobilization of the DNA fragment onto an SA chip (GE Healthcare Japan Corp.) was prepared by chemical synthesis and gel purification. For the immobilization of each DNA fragment onto the sensor chip, a DNA solution diluted with a PBS solution to 25 nM was subjected to folding treatment (90° C. for 3 min→60° C. for 3 min→25° C.), and Nonidet P-40 was then added thereto at a final concentration of 0.05%. The resulting DNA solution (5 μl; corresponding to 1 min) was injected to the SA chip at a flow rate of 5 μl/min to immobilize the DNA fragment onto the chip. […]
The interaction between the immobilized DNA fragment and VEGF-165 was detected under monitoring by the injection of 12.5 nM, 25 nM, 37.5 nM, 50 nM, 62.5 nM, and 75 nM VEGF-165 solutions (diluted with buffer solution A; in terms of dimer) at the Kinetic Injection mode. […]

IFN-gamma [5] = target: T2, IFN-gamma (UniProt P01579 P01579:24-166); assay: SPR; existing aptamer control; settings: tags: PeproTech; chain copies: 2
T2 sequence (P01579 24-166, one chain of several): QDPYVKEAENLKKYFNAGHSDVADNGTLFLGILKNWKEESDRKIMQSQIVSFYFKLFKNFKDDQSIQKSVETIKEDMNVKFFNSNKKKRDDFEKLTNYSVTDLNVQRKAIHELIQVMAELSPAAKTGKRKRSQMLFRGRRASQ

IFN-gamma [6] = target: T2, IFN-gamma; assay: SPR; Bound 0.14; settings: tags: PeproTech; chain copies: 2
VEGF-165 [7] = target: T1, VEGF-165; assay: SPR; 10 nM VEGF-165, 930 s; settings: tags: PeproTech; chain copies: 2 (dimer, concentrations stated in terms of dimer)
Method: (§3) FIGS. 15A to 15C show the SPR sensorgrams wherein 2.5 nM, 5 nM, or 10 nM VEGF-165 was injected. […] Each sensorgram was normalized to the molecular weight of a DNA fragment bound with SPR, the molecular weight of an injected protein, and the amount of the SPR-bound DNA fragment immobilized (RU). The injection time is 480 seconds. The dissociation time is 480 seconds.
as §1

VEGF-165 [8] = target: T1, VEGF-165; assay: SPR; random control; settings: tags: PeproTech; chain copies: 2 (dimer, concentrations stated in terms of dimer)
IFN-gamma [9] = target: T2, IFN-gamma; assay: SPR; 150 nM IFN-gamma, 930 s; settings: tags: PeproTech; chain copies: 2
Method: as §3, with “19A” for “15A”, “19C” for “15C”, “50” for “2.5”, “100” for “5”, “150” for “10”, “IFN-γ” for “VEGF-165”
Five types of sequences were selected from the sequences shown in Table 12 and analyzed for their IFN-γ-binding ability by surface plasmon resonance assay and 57-mer DNA fragments (Table 13) truncated at a primer region. A previously reported 57-mer DNA fragment comprising the DNA sequence of IFN-γ was also prepared and analyzed as a control.

VEGF-165 [10] = target: T1, VEGF-165; assay: SPR; printed as uM, evidently pM; existing aptamer control; settings: tags: PeproTech; chain copies: 2 (dimer, concentrations stated in terms of dimer)
Method: as §1, §2

T1 sequence (P15692 other isoform, or with tags, fused parts or gaps): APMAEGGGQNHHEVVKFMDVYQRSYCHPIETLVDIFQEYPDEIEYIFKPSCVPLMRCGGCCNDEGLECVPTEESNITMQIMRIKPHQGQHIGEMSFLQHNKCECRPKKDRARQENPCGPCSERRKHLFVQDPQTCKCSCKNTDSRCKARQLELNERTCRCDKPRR

ATCGTATCAGTCCACAAGCCCGTCTTCCAGACAAGAGTGCAGGGC (ssDNA) [contVG-45]
Kd (VEGF-165 [1]): 0.081 nM

B1: VG20A-57 (ssDNA)
DNA: TCAGTCCACGGTAAACTGAGTCCGAAGGGGCATGCAGTGAACCCGAATGGGTCCGG
Kd (VEGF-165 [2]): 0.22 nM

GTAAACTGCGTCCGAAGGGGCATGCAGTGAACCCGAATGGGTCCG (ssDNA) [VGd1-2A-45]
Kd (VEGF-165 [3]): 0.5 nM

TTGCACTCTGTGGGGGTGGACGGGCCGGGTAGATA (ssDNA) [VEGF binding DNA 35]
Kd (VEGF-165 [4]): > 100 nM

B2: contIF-57 (ssDNA)
DNA: TTCTGTCAATCGATCGTATCAGTCCACAATGGGGTTGGTTGTGTTGGGTGTTGTGT
Kd (IFN-gamma [5]): 67 nM

TCGGGTCATTTAATAATGTAGGTATGGGCTAGGCAGCTAGTGGAT (ssDNA) [IFd1-3A-45]
Kd (IFN-gamma [6]): > 200 nM

B3: VG01A-57 (ssDNA)
DNA: ATCAGTCCACAAAGTGCTGGGTCCGAATGGCGGGGGGTTAGGCCTCTTTGGGGCGG
binding signal (VEGF-165 [7]): 0.37 bound ratio

B4: VG02bA-57 (ssDNA)
DNA: ATCAGTCCACATACGCGGGGGTGTTGAAGGGTTAGTCGGAAGTAGTGTGTACAGAG
binding signal (VEGF-165 [7]): 0.31 bound ratio

B5: VG02aA-57 (ssDNA)
DNA: ATCAGTCCACATCGAGCGTGAGGTCCGAAAGGCGACTCTTATAACATCAAGTAATG
binding signal (VEGF-165 [7]): 0.01 bound ratio

B6: VG08A-57 (ssDNA)
DNA: ATCAGTCCACGAGATGGATGGTAGTGGCCGAACGGGGGGGATGGAGAAGCTGGCTG
binding signal (VEGF-165 [7]): 0.01 bound ratio

ATGCTAGAGCATTGCGTAGAAGCTTGATATGTTGCTGGCCCGGAC (ssDNA) [Random-45]
binding signal (VEGF-165 [8]): 0.01 bound ratio

B7: IF11A-57 (ssDNA)
DNA: ATCAGTCCACCTATGTGGGTTGGATGGGGTGTATGTTAGTAGGGCTAAGGAGGTGG
binding signal (IFN-gamma [9]): 0.46 bound ratio

B8: IF07aA-57 (ssDNA)
DNA: ATCAGTCCACTCCTTCTGTCATAGGGCAGGCGCATTTGGTGTAGAGTTTATCTTGG
binding signal (IFN-gamma [9]): 0.19 bound ratio

B9: IF04A-57 (ssDNA)
DNA: ATCAGTCCACTAATCAGGAAGAAGATAGGGTTTGTCTTATGTTGCCACGCTGGGAG
binding signal (IFN-gamma [9]): 0.08 bound ratio

B10: IF07bA-57 (ssDNA)
DNA: ATCAGTCCACTCGGGTCGTTTAATAATGTAGGTATGGGCTAGGCAGCTAGTGGATG
binding signal (IFN-gamma [9]): 0.05 bound ratio

CGATCGTATCAGTCCACAAGCCCGTCTTCCAGACAAGAGTGCAGGGC (ssDNA) [contVG-47]
Kd (VEGF-165 [1]): 0.044 nM

B11: contVG-57 (ssDNA)
DNA: TCTGTCAATCGATCGTATCAGTCCACAAGCCCGTCTTCCAGACAAGAGTGCAGGGC
Kd (VEGF-165 [10]): 0.046 nM
